Assays:
APP751wt = assay: cell-free β-secretase assay, β-NTF ELISA, APP751wt substrate; assay type: biochemical, human; settings: membrane extracts of transfected HEK293 cells, incubation up to 8 hours
Method: The β-secretase assay consists of two different parts, an incubation or reaction phase to generate β-NTF and an ELISA part to capture and measure the β-NTF generated by β-secretase. The β-secretase ELISA was performed as follows. Each well of a 96 well plate containing a flat bottom (high protein binding, Corning, N.Y.) was coated with 100 μl of the monoclonal capture antibody 8E5 (at ˜8-10 μg/ml) (Johnson-Wood et al. Proc. Natl. Acad. Sci. USA 94: 1550-1555 [1997]). The plate was then covered with parafilm and incubated overnight at 4° C. or alternatively for 2 hours at 37° C. […]
One hundred μl of a 1:5000 dilution of a goat anti rabbit IgG-HRP in Antibody-Conjugate Buffer was then added to each well, and the plate incubated at room temperature for one hour. […] After sufficient blue color had developed, the reactions were stopped by adding 100 μl of 5N H2SO4 to each well, and the amount of βNTF was determined by reading the plate at 450 nm in a Softmax spectrophotometer.
Equal amounts of membrane extracts from either mock, BACE or BACE2 transfected HEK293 cells were incubated with partially purified full length APP751 sw or APP751wt for the indicated times. The formation of β-NTF was then determined using the respective β-NTF specific ELISA as described in General Methodology.

[1] = test system: APP751sw processing in HEK293T cells; assay: pulse-chase / pulse-labeling and immunoprecipitation of APP CTFs, Aβ and p3 in HEK293T cells; assay type: cell-based, human
Method: Forty eight hours post-transfection, HEK293T cells were labeled for 15 minutes with 200 μCi Promix L [^35S] in vitro cell labeling mix (Amersham) and chased for up to 90 minutes according to standard procedures. APP CTFs were immunoprecipitated with antibodies 369 (Cai et al., Science 259: 514-516 [1993]). For immunoprecipitations of Aβ and p3 from conditioned medium, HEK293T cells were labeled for 5 hours with 300 μCi Promix L [^35S] in vitro cell labeling mix (Amersham) 48 hours post-transfection. Aβ40 and Aβ42 as well as the corresponding p3 species were immunoprecipitated with monoclonal antibodies 1702.1 and 108.1, respectively (Higaki et al., J. Med. Chem. 42: 3889-3898 [1999]).
To analyze the metabolism of APP as a consequence of BACE or BACE2 overexpression we performed a parallel pulse-chase experiment (FIG. 2e). HEK293T cells transfected as above were pulse-labeled and chased for up to 90 minutes and APP and CTFs were immunoprecipitated. […] An alternative β-secretase related cleavage product (β′-CTF) was also formed consistent with previous reports (Vassar et al., Science [1999] ibid; Higaki et al., Neuron 14: 651-659 [1995]). Consistent with its β-secretase activity, BACE2 overexpression led to a significant initial increase in β-CTF levels compared to mock-transfected cells. […] In general, BACE2 might have increased the overall APP turnover. To determine whether BACE affected γ-secretase activity, we determined whether p3 could be formed. We transfected HEK293 cells as in FIG. 2e and labeled them for 5 hours with Promix L [^35S]. Aβ from conditioned medium was then precipitated with antibodies directed against the C-terminal residues of Aβ40 and Aβ42, respectively, that also recognize p3 (FIG. 2f). […] Taken together, BACE2 expression leads to alternative processing of APP that precludes Aβ formation.

[2] = HEK293 cells, labeled for 5 hours, conditioned medium

B1: BACE2: human aspartyl protease, close homolog of BACE (SEQ ID NO: 2), expressed from pcDNA3.1(−)/BACE2 in transfected cells (protein)
chain: MGALARALLLPLLAQWLLRAAPELAPAPFTLPLRVAAATNRVVAPTPGPGTPAERHADGLALALEPALASPAGAANFLAMVDNLQGDSGRGYYLEMLIGTPPQKLQILVDTGSSNFAVAGTPHSYIDTYFDTERSSTYRSKGFDVTVKYTQGSWTGFVGEDLVTIPKGFNTSFLVNIATIFESENFFLPGIKWNGILGLAYATLAKPSSSLETFFDSLVTQANIPNVFSMQMCGAGLPVAGSGTNGGSLVLGGIEPSLYKGDIWYTPIKEEWYYQIEILKLEIGGQSLNLDCREYNADKAIVDSGTTLLRLPQKVFDAVVEAVARASLIPEFSDGFWTGSQLACWTNSETPWSYFPKISIYLRDENSSRSFRITILPQLYIQPMMGAGLNYECYRFGISPSTNALVIGATVMEGFYVIFDRAQKRVGFAASPCAEIAGAAVSEISGPFSTEDVASNCVPAQSLSEPILWIVSYALMSVCGAILLVLIVLLLLPFRCQRRPRDPEVVNDESSLVRHRWK
Q: For B1, which “β-NTF formation (β-secretase cleavage in vitro)” value (APP751wt) is on record?
A: cleaved APP751wt to a similar extent as BACE

Q: And the “APP CTF turnover (β-CTF, β′-CTF, α-CTF)” value ([1]; HEK293T, APP751sw, 15 min pulse, chase up to 90 minutes)?
A: strong accumulation of a cleavage product that based on size and gel migration corresponded to α-CTF

Q: What about the “formation of Aβ40 and Aβ42 (immunoprecipitation)” value [1, 2] of the same molecule?
A: interfered with the formation of both Aβ40 and Aβ42

Q: And the p3 formation [1, 2]?
A: p3 levels were not significantly affected
